7 molecules from patent US20130247232A1 (PRECISION BIOLOGICS, published 2013) can be followed below.

Where a chain is given by its changes, count along the chain named. Ends that are not written are not given here.

T1: MUC5AC truncation construct 1-85 (human, UniProt P98088 1734-1794)
T1 chain: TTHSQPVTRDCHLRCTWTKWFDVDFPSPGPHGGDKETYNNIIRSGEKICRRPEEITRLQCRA

T2: MUC5AC truncation construct 1-136 (human, UniProt P98088 3212-4055)
T2 sequence: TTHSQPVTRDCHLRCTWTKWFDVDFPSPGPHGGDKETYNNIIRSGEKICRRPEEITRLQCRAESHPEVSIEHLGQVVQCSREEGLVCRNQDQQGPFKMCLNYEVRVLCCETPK

B1: NEO-101 antibody (chimeric) (antibody, V domains shown)
VH: QVQLKESGPDLVAPSQSLSITCTVSGFSLSKFGVNWVRQPPGKGLEWLGVIWGDGSTSYNSGLISRLSISKENSKSQVFLKLNSLQADDTATYYCVKPGGDYWGHGTSVTVSS
VL: QVVLTQSPVIMSASPGEKVTMTCSASSSISYMYWYQQKPGTSPKRWIYDTSKLASGVPARFSGSGSGTSYSLTISNMEAGDAATYYCHQRDSYPWTFGGGTNLEIK
notes: Chimeric, murine variable regions with human constant regions; Used unlabeled, biotinylated, FITC-labeled or coupled to Dynal beads depending on the assay; also called NPC-1C; NPC-1-C
B2: M13 phage clone 4-1-2-C5 (other)
chain: WHTLPEKSLDENGGGSAETVESCLAKPHTENSFTNVWKDDKTLDRYANYEGCLWNATGVVVCTGDETQCYGTWVPIGLAIPENEGGGSEGGGSEGGGSEGGGTKPPEYGDTPIPGYTYINPLDGTYPPGTEQNPANPNPSLEESQPLNTFMFQNNRFRNRQGALTVYTGTVTQGTDPVKTYYQYTPVSSKAMYDAYWNGKFRDCAFHSGFNEDPFVCEYQGQSSDLPQPPVNAGGGSGGGSGGGSEGGGSEGGGSEGGGSEGGGSGGGSGSGDFDYEKMANANKGAMTENADENALQSDAKGKLDSVATDYGAAIDGFIGDVSGLANGNGATGDFAGSNSQMAQVGDGDNSPLMNNFRQYLPSLPQSVECRPFVFSAGKPYEFSIDCDKINLFRGVFAFLLYVATFMYVFSTFANILRNKES
notes: Whole phage particle displaying the peptide on pIII
B3: M13 phage clone 4-1-3-C8 (other)
chain: B2 chain with K7S, S8G, L9E, D10V, E11T, N12S
notes: as for B2
B4: M13 phage clone 4-1-3-C9 (other)
chain: FPEDYFRYTNQKGGGSAETVESCLAKPHTENSFTNVWKDDKTLDRYANYEGCLWNATGVVVCTGDETQCYGTWVPIGLAIPENEGGGSEGGGSEGGGSEGGGTKPPEYGDTPIPGYTYINPLDGTYPPGTEQNPANPNPSLEESQPLNTFMFQNNRFRNRQGALTVYTGTVTQGTDPVKTYYQYTPVSSKAMYDAYWNGKFRDCAFHSGFNEDPFVCEYQGQSSDLPQPPVNAGGGSGGGSGGGSEGGGSEGGGSEGGGSEGGGSGGGSGSGDFDYEKMANANKGAMTENADENALQSDAKGKLDSVATDYGAAIDGFIGDVSGLANGNGATGDFAGSNSQMAQVGDGDNSPLMNNFRQYLPSLPQSVECRPFVFSAGKPYEFSIDCDKINLFRGVFAFLLYVATFMYVFSTFANILRNKES
notes: as for B2
B5: M13 phage clone 4-1-4-C12 (other)
chain: SLPDDWFRYINYGGGSAETVESCLAKPHTENSFTNVWKDDKTLDRYANYEGCLWNATGVVVCTGDETQCYGTWVPIGLAIPENEGGGSEGGGSEGGGSEGGGTKPPEYGDTPIPGYTYINPLDGTYPPGTEQNPANPNPSLEESQPLNTFMFQNNRFRNRQGALTVYTGTVTQGTDPVKTYYQYTPVSSKAMYDAYWNGKFRDCAFHSGFNEDPFVCEYQGQSSDLPQPPVNAGGGSGGGSGGGSEGGGSEGGGSEGGGSEGGGSGGGSGSGDFDYEKMANANKGAMTENADENALQSDAKGKLDSVATDYGAAIDGFIGDVSGLANGNGATGDFAGSNSQMAQVGDGDNSPLMNNFRQYLPSLPQSVECRPFVFSAGKPYEFSIDCDKINLFRGVFAFLLYVATFMYVFSTFANILRNKES
notes: as for B2
B6: M13 phage clone 4-1-3-C11 (other)
chain: VHAIEDNWSPRGGGGSAETVESCLAKPHTENSFTNVWKDDKTLDRYANYEGCLWNATGVVVCTGDETQCYGTWVPIGLAIPENEGGGSEGGGSEGGGSEGGGTKPPEYGDTPIPGYTYINPLDGTYPPGTEQNPANPNPSLEESQPLNTFMFQNNRFRNRQGALTVYTGTVTQGTDPVKTYYQYTPVSSKAMYDAYWNGKFRDCAFHSGFNEDPFVCEYQGQSSDLPQPPVNAGGGSGGGSGGGSEGGGSEGGGSEGGGSEGGGSGGGSGSGDFDYEKMANANKGAMTENADENALQSDAKGKLDSVATDYGAAIDGFIGDVSGLANGNGATGDFAGSNSQMAQVGDGDNSPLMNNFRQYLPSLPQSVECRPFVFSAGKPYEFSIDCDKINLFRGVFAFLLYVATFMYVFSTFANILRNKES
notes: Whole phage particle; its peptide served as the control peptide

The target in test [1] is T1, MUC5AC truncation construct 1-85. As to the kind of experiment: immunofluorescence of transfected 293T cells. As for the experimental part:
(§1) Cells were transiently transfected with 2 μg of MUC5AC constructs of Table 8 with LIPOFECTAMINE®. Cells were grown for about 72 hours, fixed with about 4% PFA in PBS, washed with PBS, permeabilized with about 0.2% […] in PBS and washed with PBS. […] Cells were washed with PBS and second anti human-FITC antibody (1:500) was added to all wells and to the second antibody control wells. Cells were washed and mounted on slides with DAPI hard mount. Cover slides were allowed to sit over night at about 4° C. Slides were visualized with a Nikon Eclipse Ti microscope with an Andor camera. At least 3 random fields were counted per transfection.

For test [2], the target named is T2, MUC5AC truncation construct 1-136. The test is described as follows: immunofluorescence of transfected 293T cells. As for the experimental part: as §1
For test [3], the target named is B1. The test is described as follows: ELISA, biotinylated peptide on NEO-101 coated plate. On the procedure:
To solve the poor binding of peptides to 96 well plate, peptides were biotinylated using EZ-link micro NHS Biotinylation kit (Pierce Cat#21955), and labeling efficiency checked by dot blot (50%). […] The solution was blocked with 200 μl of 1% milk in TBS at RT for 20 min, Aliquots of 100 μl peptide-biotin (1 μg/ml) in 0.1% milk-TBS were added, and incubated at RT of 2 hr, followed by three washes with TBST. Streptavidin-HRP (100 μl of 1:2000 diluted in 1:10 diluted blocking buffer) was added, and the wells incubated at RT for 1 hr, followed by three washed. TMB was then added, and the wells were read at 450 nm. Positive controls for NPC-1C binding used 4B6-biotin. The results are shown in FIG. 11, which indicates biotinlyated peptides bind to NPC-1C coated plate.

The target of test [4] is B1. The test is described as follows: competition: phage premixed with NEO-101-coupled beads, then rosetting of CFPAC1 cells. As for the experimental part:
The M13 clones identified by the biopanning were also immunoassayed using magnetic beads. […] CFPAC1 cells (30 μl of 10⁶cells/ml) were added and incubated at 4° C. for 30 min. Rosetted cells were counted (>8 beads/cell).

With B1, the binding result in test [1] and in test [2] was “no binding (tested: about 2 µg/ml)” in each case.
Take YSHSVHAIEDNWSPRGGGGS (also: biotinylated (position not given here), also called negative control) [synthetic peptide 4-1-3-C11 (control peptide)]: the binding result in test [3] is recorded as “no binding (tested: 1 µg/ml)”.
On to B2, for which the “Positive rosette cells (%)” value in test [4] amounted to 0%.
As for B3, the “Positive rosette cells (%)” value in test [4] was 0%.
Turning to B4, the “Positive rosette cells (%)” value in test [4] was determined as 0%.
Still for that read-out and setting: the same measure for B5: 0%.
Turning to B6, in test [4], the “Positive rosette cells (%)” value was 38%.
